Results from US20110124071A1, “METHODS AND COMPOSITIONS FOR PRODUCING HYDROCARBONS” (priority 2009, published 2011).

Tested on: E. coli MG1655 ΔfadE lacZ::Ptrc ′tesA-fadD
Experiment: Heterologous expression in a fatty acyl-CoA-producing E. coli strain, GC-MS
Assay type: cell-based
Source text: The genomic DNA encoding Acaryochloris marina MBIC11017 AM1—4041 (YP—001518340; putative fatty aldehyde decarbonylase) (SEQ ID NO: 9) was synthesized and cloned into the NdeI and XhoI sites of vector OP-183 (pACYC derivative) under the control of the Ptrc promoter. The resulting construct was cotransformed with OP80-PCC7942—1594 into E. coli MG1655 ΔfadE lacZ::Ptrc ′tesA-fadD. This strain expresses a cytoplasmic version of the E. coli thioesterase, ′TesA, and the E. coli acyl-CoA synthetase, FadD, under the control of the Ptrc promoter, and therefore produces fatty acyl-CoAs. The cells were grown at 37° C. in M9 minimal media supplemented with 100 μg/ml spectinomycin and 100 μg/ml carbenicillin. The cells were cultured and extracted as in Example 3 and analyzed by GC-MS as described in Example 1.
The genomic DNA encoding Synechocystis sp. PCC6803 sll0208 (NP_442147; putative fatty aldehyde decarbonylase) (SEQ ID NO: 3) was synthesized and cloned into the NdeI and XhoI sites of vector OP-183 (pACYC derivative) under the control of the Ptrc promoter. The genomic DNA encoding Synechocystis sp. PCC6803 sll0209 (NP_442146; acyl-ACP reductase) (SEQ ID NO: 68) was synthesized and cloned into the NcoI and EcoRI sites of vector OP-183 (pACYC derivative) under the control of the Ptrc promoter. The resulting constructs were cotransformed with into E. coli MG1655 ΔfadE lacZ::Ptrc ′tesA-fadD. This strain expresses a cytoplasmic version of the E. coli thioesterase, ′TesA, and the E. coli acyl-CoA synthetase, FadD, under the control of the Ptrc promoter, and therefore produces fatty acyl-CoAs. The cells were grown at 37° C. in M9 minimal media supplemented with 100 μg/ml spectinomycin and 100 μg/ml carbenicillin. The cells were cultured and extracted as in Example 3 and analyzed by GC-MS as described in Example 26.

Row | Molecule | use of acyl-CoA as substrate to produce fatty aldehydes (reductase coexpressed with a fatty aldehyde decarbonylase) | production of fatty aldehydes or fatty alcohols (reductase expressed alone in acyl-CoA-producing strain) | conversion of fatty aldehydes into alkanes/alkenes (decarbonylase coexpressed with acyl-ACP reductase in acyl-CoA-producing strain)
1 | Synechocystis sp. PCC6803 sll0209: Synechocystis sp. PCC6803 acyl-ACP reductase (SEQ ID NO: 68) (protein, listed as Synechocystis sp.) MFGLIGHLTSLEHAQAVAEDLGYPEYANQGLDFWCSAPPQVVDNFQVKSVTGQVIEGKYVESCFLPEMLTQRRIKAAIRKILNAMALAQKVGLDITALGGFSSIVFEEFNLKQNNQVRNVELDFQRFTTGNTHTAYVICRQVESGAKQLGIDLSQATVAVCGATGDIGSAVCRWLDSKHQVKELLLIARNRQRLENLQEELGRGKIMDLETALPQADIIVWVASMPKGVEIAGEMLKKPCLIVDGGYPKNLDTRVKADGVHILKGGIVEHSLDITWEIMKIVEMDIPSRQMFACFAEAILLEFEGWRTNFSWGRNQISVNKMEAIGEASVKHGFCPLVAL | able to use acyl-CoA as a substrate | did not produce any fatty aldehydes or fatty alcohols | 
2 | Synechocystis sp. PCC6803 sll0208: Synechocystis sp. PCC6803 putative fatty aldehyde decarbonylase (SEQ ID NO: 3) (protein, listed as Synechocystis sp.) MPELAVRTEFDYSSEIYKDAYSRINAIVIEGEQEAYSNYLQMAELLPEDKEELTRLAKMENRHKKGFQACGNNLQVNPDMPYAQEFFAGLHGNFQHAFSEGKVVTCLLIQALIIEAFAIAAYNIYIPVADDFARKITEGVVKDEYTHLNYGEEWLKANFATAKEELEQANKENLPLVWKMLNQVQGDAKVLGMEKEALVEDFMISYGEALSNIGFSTREIMRMSSYGLAGV |  |  | octadecenal was converted into heptadecene
